Earlier results, collected in US8791066B2 (Novo Nordisk A/S, priority 2004, dated 2014).

GLP-1(7-36)amide
time until peak concentrations return to baseline / cleared from the circulation (administered subcutaneously): ≤ 90 min
time to complete clearance (in vivo): 12 to 13 min
